This passage reports complex I in-gel activity (NADH/NBT staining after HrCNE) of shRNA-C3 cells treated with 0.03 mg/mL TAT-NDUFS8 for 48 h; untreated shRNA-C3 cells about 83.6% of the wild type (% of the wild-type activity) and intensity of NDUFS8 results from PMC8234171.

Experiment [1] concerns the target human mitochondrial complex I (NADH-coenzyme Q oxidoreductase) (human (endogenous in T-REx-293 shRNA-C3)).
Experiment [2] has the same target. Put plainly: native gel or EMSA; high-resolution clear native gel electrophoresis (HrCNE, 6.5% gel, 4 °C) of DDM-solubilised mitochondria of shRNA-C3 cells treated with 0.03 mg/mL TAT-NDUFS8 for 0-48 h; immunoblot with anti-NDUFS8 at the complex I location; intensity normalised to complex V (ATPase α subunit). (In general: In EMSA bound probe runs differently from free probe, usually more slowly.)

Substance “TAT-NDUFS8 fusion protein (from UniProt O00217 35-210)” had a complex I in-gel activity (NADH/NBT staining after HrCNE) of shRNA-C3 cells treated with 0.03 mg/mL TAT-NDUFS8 for 48 h; untreated shRNA-C3 cells about 83.6% of the wild type (% of the wild-type activity) in experiment [1] of 109. In addition, in experiment [2], the intensity of NDUFS8 at the complex I location after 48 h of treatment was 105%.
